# Source: paper PMC3250062
# Biological target: Gal4p BD fused with murine p53 (pGBKT7-53) (murine)
# Assay: two-hybrid
substance,measurement,value
Gal4 AD fused with the SV40 large T-antigen (pGADT7-T) (natural protein),mean GFP fluorescence at 72 hrs,156
same,mean GFP fluorescence at 96 hrs,116
same,percent GFP positive cells,69.9%
same,percent GFP positive cells at 30-48 hrs,3 to 5%
same,percent GFP positive cells at 72 hrs,23.8%
same,percent GFP positive cells at 96 hrs,23.5%
